Results on 7 variants are retold here after publication PMC3887213.

Where a chain is given by its changes, count along the chain named.

The labels stand for the following.
B1: LRRK2 RocCOR tandem domain (LexA-BD bait, wild type) [human] / TUBB4 C terminus (Phe-317 to Ala-444), GAL4-AD prey [human] (parent)
chain 1: KAVPYNRMKLMIVGNTGSGKTTLLQQLMKTKKSDLGMQSATVGIDVKDWPIQIRDKRKRDLVLNVWDFAGREEFYSTHPHFMTQRALYLAVYDLSKGQAEVDAMKPWLFNIKARASSSPVILVGTHLDVSDEKQRKACMSKITKELLNKRGFPAIRDYHFVNATEESDALAKLRKTIINESLNFKIRDQLVVGQLIPDCYVELEKIILSERKNVPIEFPVIDRKRLLQLVRENQLQLDENELPHAVHFLNESGVLLHFQDPALQLSDLYFVEPKWLCKIMAQILTVKVEGCPKHPKGIISRRDVEKFLSKKRKFPKNYMSQYFKLLEKFQIALPIGEEYLLVPSSLSDHRPVIELPHCENSEIIIRLYEMPYFPMGFWSRLINRLLEISPYMLSGRERALRPNRMYWRQGIYL
chain 2: FRGRMSMKEVDEQMLSVQSKNSSYFVEWIPNNVKTAVCDIPPRGLKMAATFIGNSTAIQELFKRISEQFTAMFRRKAFLHWYTGEGMDEMEFTEAESNMNDLVSEYQQYQDATAEEGEFEEEAEEEVA
B2: LRRK2 RocCOR tandem domain (LexA-BD bait, wild type) [human] / TUBB C terminus (Phe-317 to the stop codon), GAL4-AD prey [human] (parent)
chain 1: B1 chain 1
chain 2: B1 chain 2 with S16N, S19N, A49V, G117E, F119D, E120F, E121G, A123E, E124A, V127E

Variants of B1 are the subject of one assay. Description: quantitative yeast two-hybrid (Q-YTH). The settings on record: with TUBB4 C terminus (Phe-317 to Ala-444), n = 5, read off a plot.
Take chain 1 KAVPYNRMKLMIVGNTGSGKTTLLQQLMKTKKSDLGMQSATVGIDVKDWPIQIRDKRKRDLVLNVWDFAGREEFYSTHPHFMTQRALYLAVYDLSKGQAEVDAMKPWLFNIKARASSSPVILVGTHLDVSDEKQRKACMSKITKELLNKRGFPAIRDYHFVNAAEESDALAKLRKTIINESLNFKIRDQLVVGQLIPDCYVELEKIILSERKNVPIEFPVIDRKRLLQLVRENQLQLDENELPHAVHFLNESGVLLHFQDPALQLSDLYFVEPKWLCKIMAQILTVKVEGCPKHPKGIISRRDVEKFLSKKRKFPKNYMSQYFKLLEKFQIALPIGEEYLLVPSSLSDHRPVIELPHCENSEIIIRLYEMPYFPMGFWSRLINRLLEISPYMLSGRERALRPNRMYWRQGIYL [chain 1 T164A]: the percent of parent worked out at 86%. Still for that read-out and setting: then chain 1 KAVPYNRMKLMIVGNDGSGKTTLLQQLMKTKKSDLGMQSATVGIDVKDWPIQIRDKRKRDLVLNVWDFAGREEFYSTHPHFMTQRALYLAVYDLSKGQAEVDAMKPWLFNIKARASSSPVILVGTHLDVSDEKQRKACMSKITKELLNKRGFPAIRDYHFVNATEESDALAKLRKTIINESLNFKIRDQLVVGQLIPDCYVELEKIILSERKNVPIEFPVIDRKRLLQLVRENQLQLDENELPHAVHFLNESGVLLHFQDPALQLSDLYFVEPKWLCKIMAQILTVKVEGCPKHPKGIISRRDVEKFLSKKRKFPKNYMSQYFKLLEKFQIALPIGEEYLLVPSSLSDHRPVIELPHCENSEIIIRLYEMPYFPMGFWSRLINRLLEISPYMLSGRERALRPNRMYWRQGIYL [chain 1 T16D], with 62%. With chain 1 KAVPYNRMKLMIVGNAGSGKTTLLQQLMKTKKSDLGMQSATVGIDVKDWPIQIRDKRKRDLVLNVWDFAGREEFYSTHPHFMTQRALYLAVYDLSKGQAEVDAMKPWLFNIKARASSSPVILVGTHLDVSDEKQRKACMSKITKELLNKRGFPAIRDYHFVNATEESDALAKLRKTIINESLNFKIRDQLVVGQLIPDCYVELEKIILSERKNVPIEFPVIDRKRLLQLVRENQLQLDENELPHAVHFLNESGVLLHFQDPALQLSDLYFVEPKWLCKIMAQILTVKVEGCPKHPKGIISRRDVEKFLSKKRKFPKNYMSQYFKLLEKFQIALPIGEEYLLVPSSLSDHRPVIELPHCENSEIIIRLYEMPYFPMGFWSRLINRLLEISPYMLSGRERALRPNRMYWRQGIYL [chain 1 T16A], the percent of parent worked out at 115%.

The variants in a further assay derive from B2. As to the kind of experiment: quantitative yeast two-hybrid (Q-YTH). The note with it: with TUBB C terminus (Phe-317 to the stop codon), n = 5, read off a plot.
chain 1 KAVPYNRMKLMIVGNAGSGKTTLLQQLMKTKKSDLGMQSATVGIDVKDWPIQIRDKRKRDLVLNVWDFAGREEFYSTHPHFMTQRALYLAVYDLSKGQAEVDAMKPWLFNIKARASSSPVILVGTHLDVSDEKQRKACMSKITKELLNKRGFPAIRDYHFVNATEESDALAKLRKTIINESLNFKIRDQLVVGQLIPDCYVELEKIILSERKNVPIEFPVIDRKRLLQLVRENQLQLDENELPHAVHFLNESGVLLHFQDPALQLSDLYFVEPKWLCKIMAQILTVKVEGCPKHPKGIISRRDVEKFLSKKRKFPKNYMSQYFKLLEKFQIALPIGEEYLLVPSSLSDHRPVIELPHCENSEIIIRLYEMPYFPMGFWSRLINRLLEISPYMLSGRERALRPNRMYWRQGIYL [chain 1 T16A]: the percent of parent came out at 130%. On the same count and under the same terms, the result for chain 1 KAVPYNRMKLMIVGNDGSGKTTLLQQLMKTKKSDLGMQSATVGIDVKDWPIQIRDKRKRDLVLNVWDFAGREEFYSTHPHFMTQRALYLAVYDLSKGQAEVDAMKPWLFNIKARASSSPVILVGTHLDVSDEKQRKACMSKITKELLNKRGFPAIRDYHFVNATEESDALAKLRKTIINESLNFKIRDQLVVGQLIPDCYVELEKIILSERKNVPIEFPVIDRKRLLQLVRENQLQLDENELPHAVHFLNESGVLLHFQDPALQLSDLYFVEPKWLCKIMAQILTVKVEGCPKHPKGIISRRDVEKFLSKKRKFPKNYMSQYFKLLEKFQIALPIGEEYLLVPSSLSDHRPVIELPHCENSEIIIRLYEMPYFPMGFWSRLINRLLEISPYMLSGRERALRPNRMYWRQGIYL [chain 1 T16D] reads 58%.

Take chain 1 KAVPYNRMKLMIVGNTGSGKTTLLQQLMKTKKSDLGMQSATVGIDVKDWPIQIRDKRKRDLVLNVWDFAGREEFYSTHPHFMTQRALYLAVYDLSKGQAEVDAMKPWLFNIKARASSSPVILVGTHLDVSDEKQRKACMSKITKELLNKRGFPAIRDYHFVNAAEESDALAKLRKTIINESLNFKIRDQLVVGQLIPDCYVELEKIILSERKNVPIEFPVIDRKRLLQLVRENQLQLDENELPHAVHFLNESGVLLHFQDPALQLSDLYFVEPKWLCKIMAQILTVKVEGCPKHPKGIISRRDVEKFLSKKRKFPKNYMSQYFKLLEKFQIALPIGEEYLLVPSSLSDHRPVIELPHCENSEIIIRLYEMPYFPMGFWSRLINRLLEISPYMLSGRERALRPNRMYWRQGIYL [chain 1 T164A]: the percent of parent is 97%. On the same count and under the same terms, the result for chain 1 KAVPYNRMKLMIVGNTGSGKTTLLQQLMKTKKSDLGMQSATVGIDVKDWPIQIRDKRKRDLVLNVWDFAGREEFYSTHPHFMTQRALYLAVYDLSKGQAEVDAMKPWLFNIKARASSSPVILVGTHLDVSDEKQRKACMSKITKELLNKRGFPAIRDYHFVNADEESDALAKLRKTIINESLNFKIRDQLVVGQLIPDCYVELEKIILSERKNVPIEFPVIDRKRLLQLVRENQLQLDENELPHAVHFLNESGVLLHFQDPALQLSDLYFVEPKWLCKIMAQILTVKVEGCPKHPKGIISRRDVEKFLSKKRKFPKNYMSQYFKLLEKFQIALPIGEEYLLVPSSLSDHRPVIELPHCENSEIIIRLYEMPYFPMGFWSRLINRLLEISPYMLSGRERALRPNRMYWRQGIYL [chain 1 T164D] reads 35%.
